Here are results for 7 molecules from patent US20220074941A1, “HSP90 COMBINATION THERAPY” (Sloan-Kettering Institute for Cancer Research, priority 2011, published 2022).

To fix the notation:
B1: NOP2 (protein, UniProt P46087 1-812, looked up)
28S rRNA …: MGRKLDPTKEKRGPGRKARKQKGAETELVRFLPAVSDENSKRLSSRARKRAAKRRLGSVEAPKTNKSPEAKPLPGKLPKGISAGAVQTAGKKGPQSLFNAPRGKKRPAPGSDEEEEEEDSEEDGMVNHGDLWGSEDDADTVDDYGADSNSEDEEEGEALLPIERAARKQKAREAAAGIQWSEEETEDEEEEKEVTPESGPPKVEEADGGLQINVDEEPFVLPPAGEMEQDAQAPDLQRVHKRIQDIVGILRDFGAQREEGRSRSEYLNRLKKDLAIYYSYGDFLLGKLMDLFPLSELVEFLEANEVPRPVTLRTNTLKTRRRDLAQALINRGVNLDPLGKWSKTGLVVYDSSVPIGATPEYLAGHYMLQGASSMLPVMALAPQEHERILDMCCAPGGKTSYMAQLMKNTGVILANDANAERLKSVVGNLHRLGVTNTIISHYDGRQFPKVVGGFDRVLLDAPCSGTGVISKDPAVKTNKDEKDILRCAHLQKELLLSAIDSVNATSKTGGYLVYCTCSITVEENEWVVDYALKKRNVRLVPTGLDFGQEGFTRFRERRFHPSLRSTRRFYPHTHNMDGFFIAKFKKFSNSIPQSQTGNSETATPTNVDLPQVIPKSENSSQPAKKAKGAAKTKQQLQKQQHPKKASFQKLNGISKGADSELSTVPSVTKTQASSSFQDSSQPAGKAEGIREPKVTGKLKQRSPKLQSSKKVAFLRQNAPPKGTDTQTPAVLSPSKTQATLKPKDHHQPLGRAKGVEKQQLPEQPFEKAAFQKQNDTPKGPQPPTVSPIRSSRPPPAKRKKSQSRGNSQLLLS
B2: NFKB1 (protein)
chain: MAEDDPYLGRPEQMFHLDPSLTHTIFNPEVFQPQMALPTDGPYLQILEQPKQRGFRFRYVCEGPSHGGLPGASSEKNKKSYPQVKICNYVGPAKVIVQLVTNGKNIHLHAHSLVGKHCEDGICTVTAGPKDMVVGFANLGILHVTKKKVFETLEARMTEACIRGYNPGLLVHPDLAYLQAEGGGDRQLGDREKELIRQAALQQTKEMDLSVVRLMFTAFLPDSTGSFTRRLEPVVSDAIYDSKAPNASNLKIVRMDRTAGCVTGGEEIYLLCDKVQKDDIQIRFYEEEENGGVWEGFGDFSPTDVHRQFAIVFKTPKYKDINITKPASVFVQLRRKSDLETSEPKPFLYYPEIKDKEEVQRKRQKLMPNFSDSFGGGSGAGAGGGGMFGSGGGGGGTGSTGPGYSFPHYGFPTYGGITFHPGTTKSNAGMKHGTMDTESKKDPEGCDKSDDKNTVNLFGKVIETTEQDQEPSEATVGNGEVTLTYATGTKEESAGVQDNLFLEKAMQLAKRHANALFDYAVTGDVKMLLAVQRHLTAVQDENGDSVLHLAIIHLHSQLVRDLLEVTSGLISDDIINMRNDLYQTPLHLAVITKQEDVVEDLLRAGADLSLLDRLGNSVLHLAAKEGHDKVLSILLKHKKAALLLDHPNGDGLNAIHLAMMSNSLPCLLLLVAAGADVNAQEQKSGRTALHLAVEHDNISLAGCLLLEGDAHVDSTTYDGTTPLHIAAGRGSTRLAALLKAAGADPLVENFEPLYDLDDSWENAGEDEGVVPGTTPLDMATSWQVFDILNGKPYEPEFTSDDLLAQGDMKQLAEDVKLQLYKLLEIPDPDKNWATLAQKLGLGILNNAFRLSPAPSKTLMDNYEVSGGTVRELVEALRQMGYTEAIEVIQAASSPVKTTSQAHSLPLSPASTRQQIDELRDSDSVCDSGVETSFRKLSFTESLTSGASLLTLNKMPHDYGQEGPLEGKI
B3: SLC3A2 (protein, UniProt P08195 1-630, looked up)
Amino acid transporter heavy …: MELQPPEASIAVVSIPRQLPGSHSEAGVQGLSAGDDSELGSHCVAQTGLELLASGDPLPSASQNAEMIETGSDCVTQAGLQLLASSDPPALASKNAEVTGTMSQDTEVDMKEVELNELEPEKQPMNAASGAAMSLAGAEKNGLVKIKVAEDEAEAAAAAKFTGLSKEELLKVAGSPGWVRTRWALLLLFWLGWLGMLAGAVVIIVRAPRCRELPAQKWWHTGALYRIGDLQAFQGHGAGNLAGLKGRLDYLSSLKVKGLVLGPIHKNQKDDVAQTDLLQIDPNFGSKEDFDSLLQSAKKKSIRVILDLTPNYRGENSWFSTQVDTVATKVKDALEFWLQAGVDGFQVRDIENLKDASSFLAEWQNITKGFSEDRLLIAGTNSSDLQQILSLLESNKDLLLTSSYLSDSGSTGEHTKSLVTQYLNATGNRWCSWSLSQARLLTSFLPAQLLRLYQLMLFTLPGTPVFSYGDEIGLDAAALPGQPMEAPVMLWDESSFPDIPGAVSANMTVKGQSEDPGSLLSLFRRLSDQRSKERSLLHGDFHAFSAGPGLFSYIRHWDQNERFLVVLNFGDVGLSAGLQASDLPASASLPAKADLLLSTQPGREEGSPLELERLKLEPHEGLLLRFPYAA
B4: NOB1 (protein, UniProt Q9ULX3 2-412, looked up)
RNA-binding protein NOB1: APVEHVVADAGAFLRHAALQDIGKNIYTIREVVTEIRDKATRRRLAVLPYELRFKEPLPEYVRLVTEFSKKTGDYPSLSATDIQVLALTYQLEAEFVGVSHLKQEPQKVKVSSSIQHPETPLHISGFHLPYKPKPPQETEKGHSACEPENLEFSSFMFWRNPLPNIDHELQELLIDRGEDVPSEEEEEEENGFEDRKDDSDDDGGGWITPSNIKQIQQELEQCDVPEDVRVGCLTTDFAMQNVLLQMGLHVLAVNGMLIREARSYILRCHGCFKTTSDMSRVFCSHCGNKTLKKVSVTVSDDGTLHMHFSRNPKVLNPRGLRYSLPTPKGGKYAINPHLTEDQRFPQLRLSQKARQKTNVFAPDYIAGVSPFVENDISSRSATLQVRDSTLGAGRRRLNPNASRKKFVKKR
B5: FTSJD2 (protein, UniProt Q8N1G2 1-835, looked up)
Cap-specific mRNA …: MKRRTDPECTAPIKKQKKRVAELALSLSSTSDDEPPSSVSHGAKASTTSLSGSDSETEGKQHSSDSFDDAFKADSLVEGTSSRYSMYNSVSQKLMAKMGFREGEGLGKYSQGRKDIVEASSQKGRRGLGLTLRGFDQELNVDWRDEPEPSACEQVSWFPECTTEIPDTQEMSDWMVVGKRKMIIEDETEFCGEELLHSVLQCKSVFDVLDGEEMRRARTRANPYEMIRGVFFLNRAAMKMANMDFVFDRMFTNPRDSYGKPLVKDREAELLYFADVCAGPGGFSEYVLWRKKWHAKGFGMTLKGPNDFKLEDFYSASSELFEPYYGEGGIDGDGDITRPENISAFRNFVLDNTDRKGVHFLMADGGFSVEGQENLQEILSKQLLLCQFLMALSIVRTGGHFICKTFDLFTPFSVGLVYLLYCCFERVCLFKPITSRPANSERYVVCKGLKVGIDDVRDYLFAVNIKLNQLRNTDSDVNLVVPLEVIKGDHEFTDYMIRSNESHCSLQIKALAKIHAFVQDTTLSEPRQAEIRKECLRLWGIPDQARVAPSSSDPKSKFFELIQGTEIDIFSYKPTLLTSKTLEKIRPVFDYRCMVSGSEQKFLIGLGKSQIYTWDGRQSDRWIKLDLKTELPRDTLLSVEIVHELKGEGKAQRKISAIHILDVLVLNGTDVREQHFNQRIQLAEKFVKAVSKPSRPDMNPIRVKEVYRLEEMEKIFVRLEMKIIKGSSGTPKLSYTGRDDRHFVPMGLYIVRTVNEPWTMGFSKSFKKKFFYNKKTKDSTFDLPADSIAPFHICYYGRLFWEWGDGIRVHDSQKPQDQDKLSKEDVLSFIQMHRA
B6: VAC14 (protein, UniProt Q08AM6 1-782, looked up)
Protein VAC14 homolog: MNPEKDFAPLTPNIVRALNDKLYEKRKVAALEIEKLVREFVAQNNTVQIKHVIQTLSQEFALSQHPHSRKGGLIGLAACSIALGKDSGLYLKELIEPVLTCFNDADSRLRYYACEALYNIVKVARGAVLPHFNVLFDGLSKLAADPDPNVKSGSELLDRLLKDIVTESNKFDLVSFIPLLRERIYSNNQYARQFIISWILVLESVPDINLLDYLPEILDGLFQILGDNGKEIRKMCEVVLGEFLKEIKKNPSSVKFAEMANILVIHCQTTDDLIQLTAMCWMREFIQLAGRVMLPYSSGILTAVLPCLAYDDRKKSIKEVANVCNQSLMKLVTPEDDELDELRPGQRQAEPTPDDALPKQEGTASGGPDGSCDSSFSSGISVFTAASTERAPVTLHLDGIVQVLNCHLSDTAIGMMTRIAVLKWLYHLYIKTPRKMFRHTDSLFPILLQTLSDESDEVILKDLEVLAEIASSPAGQTDDPGPLDGPDLQASHSELQVPTPGRAGLLNTSGTKGLECSPSTPTMNSYFYKFMINLLKRFSSERKLLEVRGPFIIRQLCLLLNAENIFHSMADILLREEDLKFASTMVHALNTILLTSTELFQLRNQLKDLKTLESQNLFCCLYRSWCHNPVTTVSLCFLTQNYRHAYDLIQKFGDLEVTVDFLAEVDKLVQLIECPIFTYLRLQLLDVKNNPYLIKALYGLLMLLPQSSAFQLLSHRLQCVPNPELLQTEDSLKAAPKSQKADSPSIDYAELLQHFEKVQNKHLEVRHQRSGRGDHLDRRVVL
B7: SARM1 (protein, UniProt Q6SZW1 28-724, looked up)
NAD(+) hydrolase SARM1: LAVPGPDGGGGTGPWWAAGGRGPREVSPGAGTEVQDALERALPELQQALSALKQAGGARAVGAGLAEVFQLVEEAWLLPAVGREVAQGLCDAIRLDGGLDLLLRLLQAPELETRVQAARLLEQILVAENRDRVARIGLGVILNLAKEREPVELARSVAGILEHMFKHSEETCQRLVAAGGLDAVLYWCRRTDPALLRHCALALGNCALHGGQAVQRRMVEKRAAEWLFPLAFSKEDELLRLHACLAVAVLATNKEVEREVERSGTLALVEPLVASLDPGRFARCLVDASDTSQGRGPDDLQRLVPLLDSNRLEAQCIGAFYLCAEAAIKSLQGKTKVFSDIGAIQSLKRLVSYSTNGTKSALAKRALRLLGEEVPRPILPSVPSWKEAEVQTWLQQIGFSKYCESFREQQVDGDLLLRLTEEELQTDLGMKSGITRKRFFRELTELKTFANYSTCDRSNLADWLGSLDPRFRQYTYGLVSCGLDRSLLHRVSEQQLLEDCGIHLGVHRARILTAAREMLHSPLPCTGGKPSGDTPDVFISYRRNSGSQLASLLKVHLQLHGFSVFIDVEKLEAGKFEDKLIQSVMGARNFVLVLSPGALDKCMQDHDCKDWVHKEIVTALSCGKNIVPIIDGFEWPEPQVLPEDMQAVLTFNGIKWSHEYQEATIEKIIRFLQGRSSRDSSAGSDTSLEGAAPMGPT

One test deals with Hsp90 complexes in Mia-PaCa-2 cell extract. As to the kind of experiment: Nano-LC-MS/MS of PU-beads pull-downs. The test is classed as binding, human. As to conditions: protein identified in PU-beads pull-down of Mia-PaCa-2 cell extract; QSTAR-Elite QTof MS. Summed up: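 Lysates pre-cleared overnight at 4 °C with control beads underwent PU-bead pull-down; bound proteins were SDS-eluted, gel-separated, digested and analyzed by nano-LC-MS/MS on a QTof. Identifications used significance p<0.05, 0.4 Da tolerances and one missed cleavage; unique peptide (spectral) counts and sequence coverage were reported.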
Consider B1, for which the “Number of Assigned Spectra, Mia-Paca 2” value came out at 7.
Consider B2, for which the “Number of Assigned Spectra, Mia-Paca 2” value was 2.
Still for that read-out and setting: next, B3: 0; B4: 0.
The same measure, in the same setting: the value for B5 was 0.
On to B6, for which the “Number of Assigned Spectra, Mia-Paca 2” value came out at 0.
Still for that read-out and setting: next, B7: 5.

For the next test, the system named is Hsp90 complexes in K562 cell extract. As to the kind of experiment: Nano-LC-MS/MS of PU-beads pull-downs. It is filed as binding. As to conditions: protein identified in PU-beads pull-down of K562 cell extract, Prep 1; QSTAR-Elite QTof MS. Summed up:
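Lysates pre-cleared overnight at 4 °C with control beads, then pulled down with PU-beads or control beads; eluted proteins (2% SDS boil) gel-separated and analysed by nano LC-MS/MS on a QTof. Mascot identification (p<0.05), spectral counts and sequence coverage evaluated in Scaffold.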
As to B1, the “Number of Assigned Spectra, K562 Prep 1” value was determined as 0.
Turning to B2, the “Number of Assigned Spectra, K562 Prep 1” value is given as 1.
Same read-out and setting: the value for B3 was 3; that for B4 was 5.
Still for that read-out and setting: next, B5: 3; B6: 5; B7: 0.

The same test, now with this note: protein identified in PU-beads pull-down of K562 cell extract, Prep 2; QSTAR-Elite QTof MS.
For B1, the “Number of Assigned Spectra, K562 Prep 2” value came out at 0.
Still for that read-out and setting: the value for B2 was 0.
In the case of B3, the “Number of Assigned Spectra, K562 Prep 2” value is listed as 0.
Consider B4, for which the “Number of Assigned Spectra, K562 Prep 2” value turned out to be 0.
Still for that read-out and setting: the value for B5 was 1.
Turning to B6, the “Number of Assigned Spectra, K562 Prep 2” value stood at 2.
Still for that read-out and setting: next, B7: 0.
